Columns and labels:
[1] = biological target: T1, Nucleocapsid protein N (SARS-CoV-2, UniProt P0DTC9 1-419); experiment: MST; no Ubl1; 40 nM RNA; settings: protein: recombinant; tags: N-terminal His6-TEV, tag removed; chain copies: 2; label: 5'-Cy5; single strand
[2] = biological target: T2, Nsp3 Ubl1 (SARS-CoV-2, UniProt P0DTD1 819-929); experiment: MST; Ubl1 1, 5, 10 uM; settings: protein: recombinant; tags: His tag removed by thrombin; label: 5'-Cy5; single strand
[3] = biological target: T1, Nucleocapsid protein N; experiment: EMSA; settings: protein: recombinant; tags: N-terminal His6-TEV, tag removed; chain copies: 2; single strand
[4] = biological target: T2, Nsp3 Ubl1; experiment: EMSA; 3.8 uM Ubl1; settings: protein: recombinant; tags: His tag removed by thrombin; single strand
[5] = biological target: T1, Nucleocapsid protein N; experiment: EMSA; 3.8 uM N, 2.5 uM DNA; displaced by Ubl1; settings: protein: recombinant; tags: N-terminal His6-TEV, tag removed; chain copies: 2; single strand

Binder: UCUAAACGAAC (ssRNA) [11-mer TRS ssRNA]
- Kd [1]: 5.1 ± 0.6 µM
- binding result [2]: no binding

Binder: UGUUCUCUAAACGAACU (ssRNA) [17-mer TRS ssRNA]
- binding result [3]: binds
- binding result [4]: no binding

Binder: TGTTCTCTAAACGAACT (ssDNA) [17-mer TRS ssDNA]
- binding result [5]: binds
- binding result [4]: no binding

Source: publication PMC9938351, “Structural insights into ribonucleoprotein dissociation by nucleocapsid protein interacting with non-structural protein 3 in SARS-CoV-2”
